Data taken from article PMC10344781 (Nature Biotechnology, 2023).

B1: scFv2 displayed on yeast (scFv, V domains shown)
VH: VLLQQSGPELVKPGASVKIPCKASGYTFTDYEMDWVKQSHGKSLEWIGSINPNNGGTMYNQKFKGKATLTVDKSSSAAYMEVRSLTSEDTAVYYCARKPYYGMNAWFAYWGQGTLVTVSA
VL: IQVTQSSSSFSVSLGDRVTITCKASEDIYNRLAWYQQKPGNAPRLLISGATSLETGVPDRFSGSGSRKDYTLIITSLQTEDVATYYCQQYYALPLTFGAGTKLELK
notes: 25-D1.16 scFv (PDB 3CVH) changed at the nine randomised peptide-contact CDR residues; also called clone 2
B2: scFv12 displayed on yeast (scFv, V domains shown)
VH: VLLQQSGPELVKPGASVKIPCKASGYTFTDYDMDWVKQSHGKSLEWIGSINPNNGGTIYNQKFKGKATLTVDKSSSAAYMEVRSLTSEDTAVYYCARKPYRGFHAWFAYWGQGTLVTVSA
VL: IQVTQSSSSFSVSLGDRVTITCKASEDIYNRLAWYQQKPGNAPRLLISGATSLETGVPDRFSGSGSRKDYTLIITSLQTEDVATYYCQQYYGYPLTFGAGTKLELK
notes: 25-D1.16 scFv (PDB 3CVH) changed at the nine randomised peptide-contact CDR residues; also called clone 12
B3: scFv19 displayed on yeast (scFv, V domains shown)
VH: VLLQQSGPELVKPGASVKIPCKASGYTFTDYYMDWVKQSHGKSLEWIGTINPNNGGTVYNQKFKGKATLTVDKSSSAAYMEVRSLTSEDTAVYYCARKPYSGHPAWFAYWGQGTLVTVSA
VL: IQVTQSSSSFSVSLGDRVTITCKASEDIYNRLAWYQQKPGNAPRLLISGATSLETGVPDRFSGSGSRKDYTLIITSLQTEDVATYYCQQYYAFPLTFGAGTKLELK
notes: 25-D1.16 scFv (PDB 3CVH) changed at the nine randomised peptide-contact CDR residues; also called clone 19

target: T1, single-chain mouse Trp2/H2-K^b (scpMHC), biotinylated (Mus musculus, H2-Kb, UniProt P01901;P01887, biotin on the biotinylation tag (BirA)); experiment: flow cytometry on cells; yeast clones expressing TCRm scFv incubated with tenfold serially diluted target pMHC (monomer) for 1 h on ice, then streptavidin-AlexaFluor 647 for 15 min on ice; settings: one partner purified
T1 construct: residues 180-188 of tyrosinase-related protein 2 (Trp2), mouse; linker, (G4S)3 or (G4S)4; beta2M; H2-K^b without the transmembrane domain; used as monomer, as streptavidin tetramer and on an SA chip; also called Trp2/H2-K^b tetramers; Trp2/H2-K^b monomer; source: Expi293, purified (Ni-NTA, Superdex 200)

Binding result, binds:
B1
B2
B3
